One protein from patent US20020076800 can be followed below.

The data set has as its target T1, Human α2Macroglobulin, P01023.
T1 chain: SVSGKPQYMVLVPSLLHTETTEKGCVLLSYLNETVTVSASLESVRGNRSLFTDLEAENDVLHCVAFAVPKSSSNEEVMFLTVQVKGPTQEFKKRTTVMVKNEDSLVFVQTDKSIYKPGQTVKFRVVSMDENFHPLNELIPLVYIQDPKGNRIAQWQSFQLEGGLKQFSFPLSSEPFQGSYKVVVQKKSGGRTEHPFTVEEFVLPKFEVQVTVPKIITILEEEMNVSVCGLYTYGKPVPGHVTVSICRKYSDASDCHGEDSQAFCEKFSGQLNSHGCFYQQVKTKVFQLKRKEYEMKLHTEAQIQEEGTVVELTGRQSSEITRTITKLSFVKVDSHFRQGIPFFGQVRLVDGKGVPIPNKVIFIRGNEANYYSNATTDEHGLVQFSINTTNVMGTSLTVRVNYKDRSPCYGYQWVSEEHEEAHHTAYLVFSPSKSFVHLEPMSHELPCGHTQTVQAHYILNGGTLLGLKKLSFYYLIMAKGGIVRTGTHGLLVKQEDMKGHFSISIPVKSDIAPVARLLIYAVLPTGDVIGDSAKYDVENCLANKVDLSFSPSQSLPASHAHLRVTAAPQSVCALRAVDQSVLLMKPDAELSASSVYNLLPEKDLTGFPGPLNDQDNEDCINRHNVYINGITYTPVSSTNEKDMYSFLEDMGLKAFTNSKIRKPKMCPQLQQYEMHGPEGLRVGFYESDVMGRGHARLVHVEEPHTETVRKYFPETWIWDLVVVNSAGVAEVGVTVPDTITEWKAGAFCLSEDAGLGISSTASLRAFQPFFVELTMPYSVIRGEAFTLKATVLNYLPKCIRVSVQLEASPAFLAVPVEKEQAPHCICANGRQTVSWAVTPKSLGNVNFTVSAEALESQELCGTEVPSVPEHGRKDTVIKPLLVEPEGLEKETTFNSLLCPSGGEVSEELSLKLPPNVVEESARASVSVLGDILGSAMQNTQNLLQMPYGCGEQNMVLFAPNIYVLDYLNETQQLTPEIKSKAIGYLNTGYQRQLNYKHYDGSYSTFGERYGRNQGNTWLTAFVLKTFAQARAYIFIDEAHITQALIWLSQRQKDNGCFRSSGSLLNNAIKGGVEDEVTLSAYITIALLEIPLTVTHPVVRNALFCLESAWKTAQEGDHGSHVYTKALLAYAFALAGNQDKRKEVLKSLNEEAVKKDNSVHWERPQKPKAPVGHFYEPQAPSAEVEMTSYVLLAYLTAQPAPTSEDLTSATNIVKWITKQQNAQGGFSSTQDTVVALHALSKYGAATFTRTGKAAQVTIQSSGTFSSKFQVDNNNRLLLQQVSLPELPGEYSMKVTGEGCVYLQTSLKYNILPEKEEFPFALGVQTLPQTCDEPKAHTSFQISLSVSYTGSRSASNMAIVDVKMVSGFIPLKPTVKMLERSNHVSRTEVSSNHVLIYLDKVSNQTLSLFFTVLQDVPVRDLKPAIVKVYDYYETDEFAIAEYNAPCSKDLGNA

B1: HipHum 35 construct no.2 (recombinant HH35 protein, catalytic domain only, with a six histidine tag at the amino terminal) (protein)
chain: HHHHHHRRSPRAPLSLSRRGWQPRGYPDGGAAQAFSKRTLSWRLLGEALSSQLSVADQRRIVALAFRMWSEVTPLDFREDLAAPGAAVDIKLGFGRGRHLGCPRAFDGSGQEFAHAWRLGDIHFDDDEHFTPPTSDTGISLLKVAVHEIGHVLGLPHTYRTGSIMQPNYIPQEPAFELDWSDRKAIQKLY
Consider B1, for which the “α2Macroglobulin trapping (protein gel), evidence for protease activity” value is listed as “αmacroglobulin capture by Hiphum 35, demonstrating that Hiphum 35 has protease activity”.
